This is an account of results in publication PMC12718381.

For the assay, the target named is HA-STIM1-L258C (UniProt Q13586). Description: disulfide crosslinking, Western blot. The settings on record: diamide-treated STIM1/2 DKO HEK293 cells coexpressing HA-STIM1-L258C and a single mCh-STIM1 mutant; read off a plot. (In general: Immunoblotting shows a protein as a band on a membrane.)
Substance mCh-STIM1 417C came in with an other: Crosslinking (%) of 2.9%.

mCh-STIM1 418C displayed an other: Crosslinking (%) of 3.8%.

For the substance mCh-STIM1 421C, the other: Crosslinking (%) worked out at 1.8%.

The substance mCh-STIM1 422C showed an other: Crosslinking (%) of 1.2%.

mCh-STIM1 424C displayed an other: Crosslinking (%) of 7%.
